Reference: patent US20230374526A1, “FORSKOLIN-INDUCIBLE PROMOTERS AND HYPOXIA-INDUCIBLE PROMOTERS” (ASKLEPIOS BIOPHARMACEUTICAL, INC., priority 2020, published 2023)

How the values were obtained:
[1] = test system: CHO-GSK1SV cell line; assay: SEAP expression from hypoxia-inducible promoter in stably integrated cell line, normoxia vs 24 h hypoxia; assay type: cell-based, chinese hamster; conditions: normalised to cell number
Procedure: Cell suspensions of 6×10^5 cells per mL are incubated on an orbital shaker set at 8% CO2, 20% O2, 37° C., 85% relative humidity and 140 rpm overnight. 2.86×10^7 cells were centrifuged at 200 g for 3 minutes. Media is then aspirated and cell pellet resuspended in 2 mL fresh CD-CHO media to obtain a concentration of 1.43×10^7 cells per mL. 700 μL of cell suspension was added to each of two electroporation cuvettes each containing […] of linearised DNA in 100 μL of sterile TE buffer (Thermofisher, 12090015). Each cuvette was electroporated, delivering a single pulse of 300V, […] with resistance to infinity. Immediately after delivery of pulse electroplated cells were transferred to Erlenmeyer 125 mL flask containing 20 mL of CD-CHO media pre-warmed to 37° C. […] Cells are transferred to fresh CD-CHO media 24 hours after transfection and cell cultures monitored and given fresh CD-CHO media every 2-4 days. […]
Stably transfected CHO-GS cells were seeded at 500,000 cells/ml and allowed to grow for 24 hrs, at this point the cells were counted and placed under hypoxic conditions as previously described. After 24 hrs, the cell numbers and the expression of SEAP was measured.
SEAP Reporter Gene Assay, chemiluminescent (Roche, CAT #11 779 842 001) was used to measured SEAP activity as per manufacturers protocol. […] The signal is then read at 477 nm and compared to a calibration curve. […]

[2] = test system: CHO-GS cells; assay: Luciferase expression from hypoxia-inducible promoter, transient transfection, normoxia vs 24 h hypoxia; assay type: cell-based, chinese hamster; conditions: CHO_GS suspension cell line
Procedure: 40 ml of cells were grown in a 250 ml vented Erlenmeyer flask (Sigma-Aldrich CLS431144) at 37° C., 20% O2, 8% CO2 with agitation at 100 rpm. Cells were seeded as at 300,000 cells/ml.
One day before transfection, the cells were counted using a haemocytometer and split to 500,000 cells/ml.
On the day of transfection, the cells are seeded to 1,000,000 cells/ml in 500 μl of appropriate medium (Thermofisher, CD-CHO 10743029) in a 24 well plate. 0.625 μg of DNA per well was then added to 10 μl of OptiMem medium (Thermofisher; 11058021) and incubated for 5 minutes at room temperature.
Concurrently, 0.625 μl of Freestyle Max reagent (Thermofisher, 16447100) was made up to 10 μl by addition of OptiMem and incubated for 5 minutes at room temperature. After this incubation, both mixes were added to the same tube and incubated at room temperature for 25-30 minutes. The DNA/Max reagent mix (20 μl/well) was then added directly to the cells and the cells incubated at 37 C, 8% CO2 with agitation at 100 rpm. […]
After transfection the cells were incubated for 24 hrs in normoxic conditions (20% oxygen). Induction of the promoters was assessed by using luciferase activity after 24 hrs in normoxia or hypoxia (5% oxygen, 10% carbon dioxide and 85% nitrogen). […] Luciferase activity was measured as described above.

[3] = test system: HEK293-T cells; assay: Luciferase expression from hypoxia-inducible promoter, normoxia vs 24 h hypoxia; assay type: cell-based, human
Procedure: HEK293-T are seeded at a density of 20%. Once they reached a confluence between 60 and 80%, the media is changed with DMEM (#21885-025—Thermo Scientific) supplemented with 10% FBS (Gibco, 26140). After 3 hours, the cells were transfected by a transfection mix. The transfection mix is prepared by adding DNA (2 μg per 6 well plate) and PEI 25 kDA (#23966-1—Polyscience) in a ratio of 1:3 in sterile DPBS (#14190169—ThermoFisher Scientific). After mixing, the transfection mix is incubated at room temperature for 30 minutes and then added directly to the cells. After 16 to 18 h post transfection, the media is changed to DMEM+2% FBS. […]
After transfection the cells were incubated for 24 hrs in normoxic conditions (20% oxygen). Induction of the promoters was assessed by using luciferase activity after 24 hrs in normoxia or hypoxia (5% oxygen, 10% carbon dioxide and 85% nitrogen). […]
Luciferase activity was measured using LARII (Dual Luciferase Reporter 1000 assay system, Promega, E1980).
Media was removed from the cells at the respective time point (0, 3, 5, 24 hrs after induction). […] 10 μl of supernatant was pipetted into white 96-well plate and luminescence measured by addition of 50 μl of LARII substrate.
β-galactosidase activity was measured as per manufacturer's instructions (Mammalian βGalactosidase Assay Kit, 75707/75710, Thermo Scientific) using 25 μl of lysate. […]

B1: RTV-015: hypoxia-inducible promoter, SEQ ID NO: 129; 5 HRE1 elements spaced by 40 bp spacers, synthetic minimal promoter MP1 (nucleic acid)
DNA: ACGTGCGATGATGCGTAGCTAGTAGTGATGATGCGTAGCTAGTAGTACGTGCGATGATGCGTAGCTAGTAGTGATGATGCGTAGCTAGTAGTACGTGCGATGATGCGTAGCTAGTAGTGATGATGCGTAGCTAGTAGTACGTGCGATGATGCGTAGCTAGTAGTGATGATGCGTAGCTAGTAGTACGTGCTTGGTACCATCCGGGCCGGCCGCTTAAGCGACGCCTATAAAAAATAGGTTGCATGCTAGGCCTAGCGCTGCCAGTCCATCTTCGCTAGCCTGTGCTGCGTCAGTCCAGCGCTGCGCTGCGTAACGGCCGCC
modifications: Synp-RTV-015
notes: 5 HRE1 elements spaced by 40 bp spacers, synthetic minimal promoter MP1
SEAP activity in normoxia [1]: almost no SEAP activity | SEAP expression after 24 hours in hypoxia (vs normoxia) [1]: induced | Luciferase expression after 24 hours in hypoxia (vs normoxia) ([2]; 5% oxygen): induced | Luciferase activity in normoxia ([2]; 20% oxygen): almost no luciferase activity | Luciferase expression after 24 hours in hypoxia (vs normoxia) ([3]; 5% oxygen): induced | Luciferase activity in normoxia ([3]; 20% oxygen): almost no luciferase activity
